Experimental data from the supplement of paper PMC7877785.
± gives the uncertainty stated by the source.

Assay: self-splicing fitness, log relative to wild type (ln ratio); higher = more splicing; Tetrahymena group I intron in knt gene, E. coli kanamycin selection, DiMSum; sequences stand for … in CUCUCU…GGAGGGAAAAGUUAUCAGGCAUGCACCUGGUAGCUAGUCUUUAAACCAAUAGAUUGCAUCGGUUUAAAAGGCAAGACCGUCAAAUUGCGGGAAAGGGGUCAACAGCCGUUCAGUACCAAGUCUCAGGGGAAACUUUGAGAUGGCCUUGCAAAGGGUAUGGUAAUAAGCUGACGGACAUGGUCCUAACCACGCAGCCAAGUCCUAAGUCAACAGAUCUUCUGUUGAUAUGGAUGCAGUUCACAGACUAAAUGUCGGUCGGGGAAGAUGUAUUCUUCUCAUAAGAUAUAGUCGGACCUCUCCUUAAUGGGAGCUAGCGGAUGAAGUGAUGCAACACUGGAGCCGCUGGGAACUAAUUUGUAUGCGAAAGUAUAUUGAUUAGUUUUGGAGUACUCGUGGUCG
Method in brief: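 Six replicate transformations of E. coli BL21(DE3) with a pET-22b(+) library were grown overnight at 37°C or 30°C. The library randomised all eight P1ex-region intron nucleotides, the intron lying in the knt kanamycin-resistance gene, and plates were LB agar with or without 25 μg/mL kanamycin plus 100 μg/mL carbenicillin, 50 μM IPTG and 0.2% rhamnose. Pooled colonies were amplicon-sequenced on an Illumina HiSeq 2500, and fitness is the DiMSum error-weighted combination of wild-type-normalised replicate fold changes, kanamycin versus none.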

Row | Sequence | self-splicing fitness (ln) (30 °C) | self-splicing fitness (ln) (37 °C)
1 | CUGCAGCAAUAUUACGGGAC | -2.53 ± 0.22 | -0.85 ± 0.17
2 | GGACAGCAAUAUUACGGUGC | -1.58 ± 0.094 | -0.8 ± 0.11
3 | CCGUAGCAAUAUUACGGAAU | -3.73 ± 0.3 | -1.92 ± 0.32
4 | CGUGAGCAAUAUUACGACCA | – | -0.768 ± 0.24
5 | UGACAGCAAUAUUACGGACC | -0.664 ± 0.12 | -0.748 ± 0.21
6 | GUGGAGCAAUAUUACGAUAU | -1.83 ± 0.17 | -0.975 ± 0.15
7 | UUCAAGCAAUAUUACGCGUU | -2.62 ± 0.12 | -0.189 ± 0.09
8 | GAUAAGCAAUAUUACGUUUG | -2.07 ± 0.17 | -1.92 ± 0.17
9 | AACGAGCAAUAUUACGACGA | -2.08 ± 0.17 | -0.282 ± 0.14
10 | UUAGAGCAAUAUUACGCACA | -0.745 ± 0.08 | -0.314 ± 0.11
11 | AAAAAGCAAUAUUACGACGC | -0.27 ± 0.086 | -0.264 ± 0.1
12 | GCUGAGCAAUAUUACGACUC | -0.148 ± 0.2 | -0.469 ± 0.21
13 | UUACAGCAAUAUUACGUCCG | -1.53 ± 0.089 | -0.482 ± 0.14
14 | CCCGAGCAAUAUUACGAGUA | -3.01 ± 0.16 | -2.37 ± 0.14
15 | CCGGAGCAAUAUUACGUCAU | -4 ± 0.24 | -2.48 ± 0.21
16 | CUCAAGCAAUAUUACGCAUU | -3.4 ± 0.15 | -2.7 ± 0.19
17 | CCUUAGCAAUAUUACGAAGU | -2.21 ± 0.15 | -1.93 ± 0.12
18 | UUCUAGCAAUAUUACGGGGG | -3.75 ± 0.37 | -2.09 ± 0.22
19 | ACCUAGCAAUAUUACGUUUC | -3.55 ± 0.13 | -1.94 ± 0.13
20 | GUGCAGCAAUAUUACGCAAA | -0.928 ± 0.1 | -0.119 ± 0.13

Row | Sequence | self-splicing fitness (ln) (30 °C) | self-splicing fitness (ln) (37 °C)
21 | CCUGAGCAAUAUUACGGGUG | -2.65 ± 0.12 | -1.81 ± 0.14
22 | UAUAAGCAAUAUUACGGUCG | -0.167 ± 0.097 | -0.128 ± 0.12
23 | UCUGAGCAAUAUUACGCACC | -3.59 ± 0.45 | –
24 | GAGGAGCAAUAUUACGACGA | -1.2 ± 0.13 | 0.494 ± 0.13
25 | GCUUAGCAAUAUUACGGGAC | -1.78 ± 0.18 | -1.19 ± 0.2
26 | UCGUAGCAAUAUUACGAAGG | -3.63 ± 0.47 | –
27 | CGUUAGCAAUAUUACGGAUU | -2.33 ± 0.23 | -2.21 ± 0.24
28 | CGCGAGCAAUAUUACGGAAU | -3.2 ± 0.2 | -3.01 ± 0.25
29 | CAGAAGCAAUAUUACGUCGU | -4.88 ± 0.36 | -1.3 ± 0.14
30 | AGUUAGCAAUAUUACGCUUC | -2.8 ± 0.18 | –
31 | UACUAGCAAUAUUACGUCCU | -1 ± 0.13 | -1.26 ± 0.15
32 | GCUGAGCAAUAUUACGUCGG | – | -1.27 ± 0.41
33 | ACGCAGCAAUAUUACGUGAG | -1.19 ± 0.056 | -0.552 ± 0.07
34 | AUACAGCAAUAUUACGUAUA | -3.94 ± 0.26 | -2.49 ± 0.16
35 | GGUCAGCAAUAUUACGGGCG | -0.483 ± 0.088 | 0.32 ± 0.12
36 | AAUAAGCAAUAUUACGAGGC | – | -2.31 ± 0.32
37 | AGUUAGCAAUAUUACGGAUA | -2 ± 0.31 | -1.42 ± 0.25
38 | ACGUAGCAAUAUUACGAAAA | -2.5 ± 0.21 | -1.58 ± 0.19
39 | GUUCAGCAAUAUUACGAUAG | -2.65 ± 0.2 | -1.53 ± 0.18
40 | GUAGAGCAAUAUUACGAGCG | -0.682 ± 0.17 | -0.875 ± 0.21
